According to patent US20170044259A1 (CYTOMX THERAPEUTICS, published 2017):
Each block holds one binder with its values, some of them ahead of it.

How the values were obtained:
pembrolizumab = molecular target: T1, pembrolizumab; assay: bacterial display clone with labeled PM1
T1 construct: also called PM1; PM1 AB

J43v2 mIgG2a = molecular target: T2, J43v2 mIgG2a; assay: bacterial display clone with DyLight 650 labeled J43v2 m2a
T2 construct: also called J43 m2a; J43v2 m2a

nivolumab = molecular target: T3, nivolumab; assay: bacterial display clone with labeled NV1
T3 construct: also called NV1; NV1 nivo
T3 sequence (VH, as listed by the source, chain 1 of 2): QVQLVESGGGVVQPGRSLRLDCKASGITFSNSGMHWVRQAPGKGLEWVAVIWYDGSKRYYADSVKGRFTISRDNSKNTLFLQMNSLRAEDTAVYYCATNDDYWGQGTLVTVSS
T3 sequence (VL, as listed by the source, chain 2 of 2): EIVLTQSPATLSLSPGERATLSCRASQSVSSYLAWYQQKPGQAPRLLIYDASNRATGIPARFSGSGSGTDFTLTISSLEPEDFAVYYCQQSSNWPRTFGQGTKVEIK

[1] = molecular target: T4, human PD-1-Fc (R and D systems, Minneapolis, Minn.) (human, UniProt Q15116 25-167); assay: plate ELISA on human PD-1-Fc; apparent KD
T4 construct: bought; also called hPD-1-Fc; hPD-1; not shown: Fc part of the bought fusion
T4 sequence (Q15116 25-167 limits assumed): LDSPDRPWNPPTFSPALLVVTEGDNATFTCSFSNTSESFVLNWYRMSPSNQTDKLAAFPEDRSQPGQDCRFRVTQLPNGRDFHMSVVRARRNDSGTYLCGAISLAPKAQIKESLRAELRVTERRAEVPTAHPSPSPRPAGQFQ

[2] = molecular target: T4, human PD-1-Fc (R and D systems, …); assay: plate ELISA on human PD-1-Fc; reference A1.5
[3] = molecular target: T4, human PD-1-Fc (R and D systems, …); assay: plate ELISA on human PD-1-Fc; reference A1.5; remark: listed apart in the source

T1 sequence (VH, as listed by the source, chain 1 of 2): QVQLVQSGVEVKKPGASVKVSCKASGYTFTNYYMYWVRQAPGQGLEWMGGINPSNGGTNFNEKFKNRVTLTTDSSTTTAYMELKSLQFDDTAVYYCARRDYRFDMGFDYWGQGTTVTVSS
T1 sequence (VL, as listed by the source, chain 2 of 2): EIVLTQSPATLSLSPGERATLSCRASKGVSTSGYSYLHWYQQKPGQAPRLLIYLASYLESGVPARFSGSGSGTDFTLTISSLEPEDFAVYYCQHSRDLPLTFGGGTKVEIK
T2 sequence (VH, as listed by the source, chain 1 of 2): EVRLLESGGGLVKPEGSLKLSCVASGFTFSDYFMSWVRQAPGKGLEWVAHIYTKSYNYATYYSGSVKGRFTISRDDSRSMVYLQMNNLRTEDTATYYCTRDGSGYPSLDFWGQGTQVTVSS
T2 sequence (VL, as listed by the source, chain 2 of 2): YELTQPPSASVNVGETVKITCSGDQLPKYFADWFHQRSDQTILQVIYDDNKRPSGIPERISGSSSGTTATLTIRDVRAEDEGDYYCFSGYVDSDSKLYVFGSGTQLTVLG

Binder: ISHYCFSGKSCRD (bacterial display clone) [masking moiety PM11]
- binding result (pembrolizumab): binds

B1: masking moiety PM01 (peptide)
peptide: GCDFTSAKHNCGSGW
notes: bacterial display clone; also called PM001
- binding result (pembrolizumab): binds

B2: masking moiety MP010 (peptide)
peptide: IPCHHSADHKHKCTS
notes: bacterial display clone; also called MP10
- binding result (J43v2 mIgG2a): binds

Binder: FCAVMFDFLSDRCLH (bacterial display clone) [masking moiety PM03]
- binding result (pembrolizumab): binds

Binder: RGCKKHTISTLTCPD (bacterial display clone) [masking moiety NV12]
- binding result (nivolumab): binds

B3: masking moiety MP004 (peptide)
peptide: SDHKCKLQNCMNTKV
notes: bacterial display clone; also called MP04
- binding result (J43v2 mIgG2a): binds

B4: masking moiety MP007 (peptide)
peptide: TIPRCGQHPKCKDTL
notes: bacterial display clone; also called MP07
- binding result (J43v2 mIgG2a): binds

Binder: PNKPCPDLQCYVTNY (bacterial display clone) [masking moiety NV10]
- binding result (nivolumab): binds

Binder: VGQSCFSGLVCDRQL (bacterial display clone) [masking moiety PM10]
- binding result (pembrolizumab): binds

B5: masking moiety MP008 (peptide)
peptide: ACRICQDHPKTKWNS
notes: bacterial display clone; also called MP08
- binding result (J43v2 mIgG2a): binds

Binder: FCPPWLDYLGNKCMT (bacterial display clone) [masking moiety PM04]
- binding result (pembrolizumab): binds

B6: PD-1 1.5 PD009 2001 (antibody, human IgG4 S228P, kappa)
heavy: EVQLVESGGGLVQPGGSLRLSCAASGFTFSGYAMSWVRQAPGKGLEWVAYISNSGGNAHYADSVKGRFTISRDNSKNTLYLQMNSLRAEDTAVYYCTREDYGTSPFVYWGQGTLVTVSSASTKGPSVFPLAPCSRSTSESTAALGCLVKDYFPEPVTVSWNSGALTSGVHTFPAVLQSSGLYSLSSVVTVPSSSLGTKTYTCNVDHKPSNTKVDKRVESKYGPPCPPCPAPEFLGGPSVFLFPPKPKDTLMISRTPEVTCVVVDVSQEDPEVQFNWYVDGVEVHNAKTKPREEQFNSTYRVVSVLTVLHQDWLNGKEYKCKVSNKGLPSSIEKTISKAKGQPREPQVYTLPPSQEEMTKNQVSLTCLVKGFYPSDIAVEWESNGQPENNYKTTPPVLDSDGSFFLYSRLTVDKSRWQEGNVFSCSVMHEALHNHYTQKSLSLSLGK
light: QGQSGQGAPRTCYTYQCSSFYTGGGSSGGSISSGLLSGRSDNHGGGSDIQLTQSPSSLSASVGDRVTITCRASESVDAYGISFMNWFQQKPGKAPKLLIYAASNQGSGVPSRFSGSGSGTDFTLTISSMQPEDFATYYCQQSKDVPWTFGQGTKLEIKRTVAAPSVFIFPPSDEQLKSGTASVVCLLNNFYPREAKVQWKVDNALQSGNSQESVTEQDSKDSTYSLSSTLTLSKADYEKHKVYACEVTHQGLSSPVTKSFNRGEC
- Kd [1]: 10 nM
- ME (masking efficiency, Kd of the activatable antibody divided by Kd of the parental antibody) [2]: 2
- Masking Efficiency [3]: 6

B7: masking moiety MP006 (peptide)
peptide: VEHLCYTHNKCKHPD
notes: bacterial display clone; also called MP06
- binding result (J43v2 mIgG2a): binds

B8: PD-1 1.5 PD006 2001 (antibody, human IgG4 S228P, kappa)
heavy: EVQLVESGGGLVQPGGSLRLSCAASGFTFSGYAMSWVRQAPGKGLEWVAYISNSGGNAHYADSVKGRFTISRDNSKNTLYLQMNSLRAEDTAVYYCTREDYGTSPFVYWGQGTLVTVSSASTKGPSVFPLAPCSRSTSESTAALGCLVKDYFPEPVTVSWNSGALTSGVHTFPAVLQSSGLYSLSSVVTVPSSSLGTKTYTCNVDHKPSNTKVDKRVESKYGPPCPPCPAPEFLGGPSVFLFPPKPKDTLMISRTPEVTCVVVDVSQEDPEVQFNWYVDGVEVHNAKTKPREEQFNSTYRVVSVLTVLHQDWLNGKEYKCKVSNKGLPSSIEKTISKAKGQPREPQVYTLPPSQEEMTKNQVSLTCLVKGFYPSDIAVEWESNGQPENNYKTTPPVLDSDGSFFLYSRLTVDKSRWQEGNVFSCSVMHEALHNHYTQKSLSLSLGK
light: QGQSGQGAPRCYMFASYCKSQYGGGSSGGSISSGLLSGRSDNHGGGSDIQLTQSPSSLSASVGDRVTITCRASESVDAYGISFMNWFQQKPGKAPKLLIYAASNQGSGVPSRFSGSGSGTDFTLTISSMQPEDFATYYCQQSKDVPWTFGQGTKLEIKRTVAAPSVFIFPPSDEQLKSGTASVVCLLNNFYPREAKVQWKVDNALQSGNSQESVTEQDSKDSTYSLSSTLTLSKADYEKHKVYACEVTHQGLSSPVTKSFNRGEC
- Kd [1]: 71 nM
- ME (masking efficiency, Kd of the activatable antibody divided by Kd of the parental antibody) [2]: 30
- Masking Efficiency [3]: 39

B9: PD-1 1.5 PD028 2001 (antibody, human IgG4 S228P, kappa)
heavy: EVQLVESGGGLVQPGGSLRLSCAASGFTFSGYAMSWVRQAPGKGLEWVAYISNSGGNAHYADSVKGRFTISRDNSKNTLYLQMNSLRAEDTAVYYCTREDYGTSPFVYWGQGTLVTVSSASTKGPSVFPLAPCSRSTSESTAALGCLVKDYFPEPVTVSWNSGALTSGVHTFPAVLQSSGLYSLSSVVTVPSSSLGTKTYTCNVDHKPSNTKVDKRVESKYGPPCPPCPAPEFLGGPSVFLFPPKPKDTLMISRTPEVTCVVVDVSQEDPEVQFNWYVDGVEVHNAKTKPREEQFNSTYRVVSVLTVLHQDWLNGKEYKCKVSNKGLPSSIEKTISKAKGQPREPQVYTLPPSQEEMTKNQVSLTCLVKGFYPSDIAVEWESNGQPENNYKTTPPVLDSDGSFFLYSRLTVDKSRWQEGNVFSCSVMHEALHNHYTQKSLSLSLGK
light: QGQSGQGFQPCLMFASSCFTSKGGGSSGGSISSGLLSGRSDNHGGGSDIQLTQSPSSLSASVGDRVTITCRASESVDAYGISFMNWFQQKPGKAPKLLIYAASNQGSGVPSRFSGSGSGTDFTLTISSMQPEDFATYYCQQSKDVPWTFGQGTKLEIKRTVAAPSVFIFPPSDEQLKSGTASVVCLLNNFYPREAKVQWKVDNALQSGNSQESVTEQDSKDSTYSLSSTLTLSKADYEKHKVYACEVTHQGLSSPVTKSFNRGEC
- ME (masking efficiency, Kd of the activatable antibody divided by Kd of the parental antibody) [2]: 25

B10: masking moiety MP012 (peptide)
peptide: QPCNPQIDHKIKCIY
notes: bacterial display clone; also called MP12
- binding result (J43v2 mIgG2a): binds

B11: PD-1 1.5 PD017 2001 (antibody, human IgG4 S228P, kappa)
heavy: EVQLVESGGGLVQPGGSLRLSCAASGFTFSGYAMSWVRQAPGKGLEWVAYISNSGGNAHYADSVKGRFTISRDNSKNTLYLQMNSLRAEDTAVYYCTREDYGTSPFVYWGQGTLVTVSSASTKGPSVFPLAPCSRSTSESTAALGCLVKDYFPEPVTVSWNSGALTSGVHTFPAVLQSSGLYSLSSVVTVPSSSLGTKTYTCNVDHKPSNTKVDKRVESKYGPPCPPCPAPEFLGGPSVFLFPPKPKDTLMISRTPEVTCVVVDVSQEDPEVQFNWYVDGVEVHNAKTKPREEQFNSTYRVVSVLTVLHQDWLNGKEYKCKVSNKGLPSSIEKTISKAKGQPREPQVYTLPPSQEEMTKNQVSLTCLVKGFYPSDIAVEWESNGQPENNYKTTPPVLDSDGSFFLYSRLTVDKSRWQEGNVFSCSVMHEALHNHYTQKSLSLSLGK
light: QGQSGQGTTCNLYQQSSMFCNAGGGSSGGSISSGLLSGRSDNHGGGSDIQLTQSPSSLSASVGDRVTITCRASESVDAYGISFMNWFQQKPGKAPKLLIYAASNQGSGVPSRFSGSGSGTDFTLTISSMQPEDFATYYCQQSKDVPWTFGQGTKLEIKRTVAAPSVFIFPPSDEQLKSGTASVVCLLNNFYPREAKVQWKVDNALQSGNSQESVTEQDSKDSTYSLSSTLTLSKADYEKHKVYACEVTHQGLSSPVTKSFNRGEC
notes: also called PD-17
- Kd [1]: 22 nM
- ME (masking efficiency, Kd of the activatable antibody divided by Kd of the parental antibody) [2]: 20
- Masking Efficiency [3]: 12

B12: PD-1 1.5 PD026 2001 (antibody, human IgG4 S228P, kappa)
heavy: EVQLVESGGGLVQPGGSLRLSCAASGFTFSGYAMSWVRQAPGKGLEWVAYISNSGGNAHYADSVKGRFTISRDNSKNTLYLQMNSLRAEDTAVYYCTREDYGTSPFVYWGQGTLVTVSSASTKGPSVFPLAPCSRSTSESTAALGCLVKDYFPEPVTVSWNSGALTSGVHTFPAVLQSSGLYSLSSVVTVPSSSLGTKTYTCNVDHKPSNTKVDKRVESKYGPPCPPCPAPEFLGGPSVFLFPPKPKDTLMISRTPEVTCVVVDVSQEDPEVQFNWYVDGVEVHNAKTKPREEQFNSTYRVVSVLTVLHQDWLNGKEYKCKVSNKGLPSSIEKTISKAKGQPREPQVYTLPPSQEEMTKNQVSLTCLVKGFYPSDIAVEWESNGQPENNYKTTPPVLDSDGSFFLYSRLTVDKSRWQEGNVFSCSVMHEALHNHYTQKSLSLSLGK
light: QGQSGQGGMCSAYAYSSKLCTIGGGSSGGSISSGLLSGRSDNHGGGSDIQLTQSPSSLSASVGDRVTITCRASESVDAYGISFMNWFQQKPGKAPKLLIYAASNQGSGVPSRFSGSGSGTDFTLTISSMQPEDFATYYCQQSKDVPWTFGQGTKLEIKRTVAAPSVFIFPPSDEQLKSGTASVVCLLNNFYPREAKVQWKVDNALQSGNSQESVTEQDSKDSTYSLSSTLTLSKADYEKHKVYACEVTHQGLSSPVTKSFNRGEC
- ME (masking efficiency, Kd of the activatable antibody divided by Kd of the parental antibody) [2]: 20

B13: PD-1 1.5 PD025 2001 (antibody, human IgG4 S228P, kappa)
heavy: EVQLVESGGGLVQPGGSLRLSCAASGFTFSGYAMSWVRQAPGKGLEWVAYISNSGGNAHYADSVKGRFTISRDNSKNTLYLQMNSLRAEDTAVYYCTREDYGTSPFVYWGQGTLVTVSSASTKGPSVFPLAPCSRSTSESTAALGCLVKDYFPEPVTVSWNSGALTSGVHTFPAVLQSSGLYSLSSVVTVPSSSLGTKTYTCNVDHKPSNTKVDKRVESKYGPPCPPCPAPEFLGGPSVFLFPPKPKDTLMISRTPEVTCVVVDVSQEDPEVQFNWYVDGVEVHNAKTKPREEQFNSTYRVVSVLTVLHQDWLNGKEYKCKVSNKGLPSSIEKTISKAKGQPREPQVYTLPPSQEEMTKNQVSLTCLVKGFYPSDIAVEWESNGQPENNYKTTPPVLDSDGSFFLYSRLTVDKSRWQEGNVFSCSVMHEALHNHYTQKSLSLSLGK
light: QGQSGQGSRCSVYEVSSGLCDWGGGSSGGSISSGLLSGRSDNHGGGSDIQLTQSPSSLSASVGDRVTITCRASESVDAYGISFMNWFQQKPGKAPKLLIYAASNQGSGVPSRFSGSGSGTDFTLTISSMQPEDFATYYCQQSKDVPWTFGQGTKLEIKRTVAAPSVFIFPPSDEQLKSGTASVVCLLNNFYPREAKVQWKVDNALQSGNSQESVTEQDSKDSTYSLSSTLTLSKADYEKHKVYACEVTHQGLSSPVTKSFNRGEC
- ME (masking efficiency, Kd of the activatable antibody divided by Kd of the parental antibody) [2]: 30

B17: A1.5 PD34 2001 (antibody, human IgG4 S228P, kappa)
heavy: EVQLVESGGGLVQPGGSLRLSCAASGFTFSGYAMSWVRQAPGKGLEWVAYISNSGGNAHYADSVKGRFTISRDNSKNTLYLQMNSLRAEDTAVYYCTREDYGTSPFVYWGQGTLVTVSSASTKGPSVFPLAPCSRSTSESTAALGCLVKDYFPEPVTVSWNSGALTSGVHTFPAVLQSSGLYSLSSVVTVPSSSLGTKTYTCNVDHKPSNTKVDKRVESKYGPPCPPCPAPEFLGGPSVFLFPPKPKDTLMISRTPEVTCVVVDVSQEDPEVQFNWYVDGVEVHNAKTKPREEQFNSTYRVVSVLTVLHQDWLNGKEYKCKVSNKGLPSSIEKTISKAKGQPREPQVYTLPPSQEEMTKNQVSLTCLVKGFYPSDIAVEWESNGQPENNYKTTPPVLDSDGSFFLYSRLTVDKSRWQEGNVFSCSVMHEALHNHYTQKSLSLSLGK
light: QGQSGQGTSYCSIEHYPCNTHHGGGSSGGSISSGLLSGRSDNHGGGSDIQLTQSPSSLSASVGDRVTITCRASESVDAYGISFMNWFQQKPGKAPKLLIYAASNQGSGVPSRFSGSGSGTDFTLTISSMQPEDFATYYCQQSKDVPWTFGQGTKLEIKRTVAAPSVFIFPPSDEQLKSGTASVVCLLNNFYPREAKVQWKVDNALQSGNSQESVTEQDSKDSTYSLSSTLTLSKADYEKHKVYACEVTHQGLSSPVTKSFNRGEC
notes: also called PD-1 1.5 PD034 2001; PD1 1.5 PD34 2001
- ME (masking efficiency, Kd of the activatable antibody divided by Kd of the parental antibody) [2]: 42

Further lines, results first:

- binding result (nivolumab): binds
Binder: PRVACGEPDLCYSNT (bacterial display clone) [masking moiety NV11]

- binding result (pembrolizumab): binds
Binder: MSCWDFSSAQGCGQH (bacterial display clone) [masking moiety PM05]

- binding result (nivolumab): binds
B14: masking moiety NV02 (peptide)
peptide: PRVCSTDGGDYCLLP
notes: bacterial display clone; also called NV002

- binding result (nivolumab): binds
Binder: PRPQCHHRHNCPDHP (bacterial display clone) [masking moiety NV03]

- binding result (nivolumab): binds
Binder: LPRCPDHPIKCIETK (bacterial display clone) [masking moiety NV06]

- binding result (pembrolizumab): binds
Binder: KLTEDFSSAA (bacterial display clone) [masking moiety PM09]

- binding result (nivolumab): binds
Binder: ASYRCPDYKCSHTKH (bacterial display clone) [masking moiety NV05]

- binding result (nivolumab): binds
Binder: RDYCGPQSPDYCHEI (bacterial display clone) [masking moiety NV09]

- binding result (J43v2 mIgG2a): binds
B15: masking moiety MP013 (peptide)
peptide: HYTICMTHNKCKDMA
notes: bacterial display clone; also called MP13

- binding result (pembrolizumab): binds
Binder: WTYENCWASCQPHLE (bacterial display clone) [masking moiety PM08]

- binding result (nivolumab): binds
Binder: KCSRPAHQNPDRCSR (bacterial display clone) [masking moiety NV04]

- binding result (J43v2 mIgG2a): binds
B16: masking moiety MP011 (peptide)
peptide: SRQICADYNCHNKYK
notes: bacterial display clone; also called MP11

- binding result (pembrolizumab): binds
Binder: LMCADLHYNHYNCKY (bacterial display clone) [masking moiety PM06]

- binding result (J43v2 mIgG2a): binds
B18: masking moiety MP002 (peptide)
peptide: ILCPEDPWGHKCKLP
notes: bacterial display clone; also called MP02; MP-02

- binding result (pembrolizumab): binds
Binder: HCIPDFTSAAGDCMR (bacterial display clone) [masking moiety PM12]

- binding result (nivolumab): binds
Binder: YTFGCPDRYCDRAAT (bacterial display clone) [masking moiety NV07]

- binding result (pembrolizumab): binds
Binder: ELCGWQSFSGVCTSE (bacterial display clone) [masking moiety PM07]

- binding result (J43v2 mIgG2a): binds
B19: masking moiety MP014 (peptide)
peptide: ANSCLAVEHKCKHNY
notes: bacterial display clone; also called MP14

- binding result (J43v2 mIgG2a): binds
B20: masking moiety MP003 (peptide)
peptide: TNIWSCQTYCDHKHK
notes: bacterial display clone; also called MP03

- binding result (J43v2 mIgG2a): binds
B21: masking moiety MP009 (peptide)
peptide: LIQCTGNLDHKCKHY
notes: bacterial display clone; also called MP09

- binding result (J43v2 mIgG2a): binds
B22: masking moiety MP005 (peptide)
peptide: PGNCHPMQKEMCQFI
notes: bacterial display clone; also called MP05

- binding result (nivolumab): binds
Binder: RGCPDFNPPSHCYTA (bacterial display clone) [masking moiety NV08]

- binding result (nivolumab): binds
B23: masking moiety NV01 (peptide)
peptide: RYCHAANPDRFCGIY
notes: bacterial display clone; also called NV001

- binding result (pembrolizumab): binds
B24: masking moiety PM02 (peptide)
peptide: VGSNCWTGPACALTS
notes: bacterial display clone; also called PM002
